In this assay the target is human TIGIT on HEK293A/human TIGIT cells (human) (UniProt Q495A1). Description: cell-based or functional assay.
Chain of human TIGIT on HEK293A/human TIGIT cells (human) (Q495A1 22-244 limits assumed): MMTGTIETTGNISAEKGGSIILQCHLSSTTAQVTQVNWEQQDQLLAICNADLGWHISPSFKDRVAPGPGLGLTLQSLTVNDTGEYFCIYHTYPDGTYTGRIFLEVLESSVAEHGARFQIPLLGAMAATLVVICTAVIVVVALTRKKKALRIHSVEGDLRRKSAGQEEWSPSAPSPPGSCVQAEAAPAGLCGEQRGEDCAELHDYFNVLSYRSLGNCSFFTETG

Tiragolumab (antibody) registered an EC50, NK92 (NK92MI-CD16a) cell-mediated ADCC, LDH release of 0.511 nM and an EC50, PBMC-mediated ADCC, death rate of GFP+ cells by FACS of 0.311 nM.
